From the DeepSol protein solubility set come the findings set out here.

The series in a line: soluble on expression in E. coli; label from the status in PepcDB or PDB records.
In the case of “MGSDKIHHHHHHMIDIAEETGYQYEILISTRTSDEENYYYDEIKVVSRNTRKRSEGLARAVKSATGNYAFIFEPSVRYSLTYADLIYGYINLGTSEVLVSNILGFQTDVIKNVGNWRPLTCGEDIDLMARAFDSYGVISYPMGGLTGLDIDDLIYGKWRNRIEKALAMRDLVIAANLKHNNIAEMAESMGIDLPTYEWLISGRILSYLSGIRPYEKNVNNYIFIMERIIESYISQDYRRIDTVSASPYISLSNRTRKYLSSVSDLWTEQNTDNKYPRESV”, the “soluble on expression in E. coli” value is given as “not soluble”.

Consider “SCRRAFDLYFVLDKSGSVANNWIEIYNFVQQLAERFVSPEMRLSFIVFSSQATIILPLTGDRGKISKGLEDLKRVSPVGETYIHEGLKLANEQIQKAGGLKTSSIIIALTDGKLDGLVPSYAEKEAKISRSLGASVYCVGVLDFEQAQLERIADSKEQVFPVKGGFQALKGIINSILAQSC”, for which the “soluble on expression in E. coli” value is listed as “soluble”.

As for “MTEAPKIEKSFNEISDMEQIFVEHHSFGIVSLSSISESLKRLELSADLNIQELLAIKKVLQSSSDMIHFYSDLDNVSFQSLDRLFENLEQFPNLQGSFQAINDGGFLEHFASPELERIRRQLTNSERRVRQILQDMLKEKAELLSENLIASRSGRSVLPVKNTYRNRISGVVHDISSSGSTVYIEPRAVVTLNEEITQLRADERHEESRILHAFSDLLRPHVATIRNNAWILGHLDFVRAKYLFMSDNKATIPEISNDSTLALINVRHPLLSNPVANDLHFDQDLTAIVITGPNTGGKTIMLKTLGLAQLMGQSGLPVLADKGSKIAVFNNIFADIGDEQSIEQSLSTFSSHMTHIVSILNEADHNSLVLFDELGAGTDPQEGASLAMAILEHLRLSNIKTMATTHYPELKAYGIETNFVENASMEFDAETLSPTYRFMQGVPGRSNAFEIASRLGLAPFIVKQAKQMTDSDSDVNRIIEQLEAQTLETRRRLDHIKEVEQENLKFNRAVKKLYNEFSHERDKELEKIYQEAQEIVDMALNESDTILKKLNDKSQLKPHEIIDAKAQIKKLAPQVDLSKNKVLNKAKKIKAARAPRIGDDIIVTSYGQRGTLTSQLKDGRWEAQVGIIKMTLTQDEFTLVRVQEEQKVKSKQINVVKKADSSGPRARLDLRGKRYEEAMQELDNFIDQALLNNMGQVDIIHGIGTGVIREGVTKYLRRNKHVKHFAYAPQNAGGSGATIVTLGLEHHHHHH”, the “soluble on expression in E. coli” value is recorded as “not soluble”.

Regarding “MELKQFKIAVLPLRDKLLSYARKLTDDHSDAEDAVQEVMLKLWNLRPKLDEYHSIEALAMTMTHHTCMDILRGKHPDNLSLDSVQAASPVATPERLLEEKDEFSLMRHIISTLPPLQQTILRMKDVEEYETEEIAEITGCSSEAIRSNLSRARKKVRDIYLQTIQQRKRRNEA”, the “soluble on expression in E. coli” value was “not soluble”.

As for “SNAKSAVTAQSILEKADEIRFPQDSFQVNVAIRTAAPDHAEDLYRYQVLSKGNENSIVMITEPASERGQAILMKGRDLWVFMPSVSQPIRLSLSQRLTGQVANGDIARANFTGDYHPQLLRNESIDDEDYYVLELTGIDRSVTYQKVLLWVNQSNFRPYKAEFYSVSGRLLKTSRYENFDNILGEMRPTRIIMEDALKSGEVSVLDYSDMKLRDLPDKIFTKDYLKRLE”, the “soluble on expression in E. coli” value is listed as “soluble”.

As for “GIDPFTMLHIEFITDLGAKVTVDVESADKLLDVQRQYGRLGWTSGEVPVGGYQFPLENEPDFDWSLIGARKWTNPEGEEMILHRGHAYRRRELEAVDSRKMKLPAAVKYSRGAKNTDPEHVREKADGEFEYVTLAIFRGGKRQERYAVPGSNRPQAGAPARSAATRAQGARPGAVAVQDEETPF”, the “soluble on expression in E. coli” value is listed as “soluble”.

On to “MTDMDPSNMTGGPMNGHSAEKSSEEKKSPRSSRGVGEDLKNAGKDAMNTMENAGKNAWDKAGELGKSGINTVQSAGSAVKNGAKDLAGKVDKAL”, for which the “soluble on expression in E. coli” value is given as “soluble”.

As to “MKSNTSQQRPYQEVGAMIRDLIVQTPYRPGERLPPEREIAERLNVTRTVVREALIMLEIKGLVEVRRGAGIYVLDSADNNEMEGADVNHCNDAGPFELLQARQLLESNIAEFAALQATREDIIKMRQALQLEERELASSAPGGSESGDMQFHLAIAEATHNSMLVELFRQSWQWRENNPMWLQLHSHLGDTLYRKEWLVDHKQILAALIKKDARAAKLAMWQHLENVKQRLLEFSNVDDIYFDGYLFESWPLDNVDA”, the “soluble on expression in E. coli” value is “not soluble”.

Regarding “MDFYYLPGSAPCRAVQMTAAAVGVELNLKLTNLMAGEHMKPEFLKLNPQHCIPTLVDEDGFVLWESRAIQIYLVEKYGAHDADLAERLYPSDPRRRAVVHQRLFFDVAVLYQRFAEYYEPQIFGQKVPVGDPGRLRSMEQALEFLNTFLEGEQYVAGGDDPTIADLSILATIATYEVAGYDLRRYENVQRWYERTSAIVPGADKNVEGAKVFGRYFTQK”, the “soluble on expression in E. coli” value is “soluble”.

As for “MSLGKKDKRWVLQRKNDHYYNLAKKRNYRSRATYKLFQLNEKFNLIKERNVVVDLGCAPGGWLQAARDIVGDKGFIVGIDLQTVKPLPYENVIAIKGDMTKEEILKQARDLLPEKPDVIICDASPNISGVWDVDHARSLELTTMALMTATKMLKKGGNFVVKVFQGDLFEKYVQLVSEYFDKAFTTKPRASRDESAEVYVIGKRFNGRKFDMNSKSPIVKLLDTNPKENEITSPSLRKDISKEDSGLMIKRIKEMRSKKEGHHHHHH”, the “soluble on expression in E. coli” value is “soluble”.

As to “MSTPHINVIGAGLAGSEAAWQIAERGIAVHLYEMRPVKQTPAHHTDKFAELVCSNSLRGNSLTNAVGVLKEEMRRLNSVIIRSADRCSVPAGGALAVDRHEFAQAVTEAVREHPNVTVFTEEIQKIPDGPTVIATGPLTSKALSEQLKQLTGEEYLYFYDAAAPIIETDSINMDKVYLKSRYDKGEAAYLNCPMTEEEFDRFYEALISAETVPLKEFEKEVFFEGCMPVEVMAKRGKKTLLFGPMKPVGLEDPKTGKRPYAVVQLRRDNQSGTLYNIVGFQTHLKWGPQKEVIQLIPGLENAEIVRYGVMHRNTFINSPNLLKPTYQYKKRKDLFFAGQITGVEGYVESAAAGLVAGLNAARLVQSKELVVFPDTTMLGSMANYITTANSKNFQPMNANFGLLPPLDTRIKDKKTRYETLAGRALESIQNFVKKMLEHHHHHH”, the “soluble on expression in E. coli” value is on record as “soluble”.

Turning to “MRRYLMDYSQYNLEKTGYLKEDFRLFHINDQTKKDFSYHYHDFHKIIVFISGKVTYHIEGKAYHLKPRDILLVSQGAIHKPEIDPSVPYERYIFWIRDDLSCQELNTCFQKANDRSFNLVRADSALQERLKDLLPEIEQTLQNKHFGDTVLRNALFTQFMIYINRIFLRTSSSPDKKTYSSDTQ”, the “soluble on expression in E. coli” value is listed as “not soluble”.

Consider “MGKPTGFLEYTREIPQELSPGDRLRNWDEFHVTMPDKQVETQGARCMDCGTPFCHTGSLISGMASGCPINNLIPEFNDLVYRGLWREALDRLHKTNNFPEFTGRVCPAPCEGSCVLGINNPPVTIKNIEYSIIEKGWQEGWVTPEPPAKRTGKKVAVVGSGPAGLAAAAQLNKAGHWVTVYEREDRPGGLLMYGIPNMKLDKEEVVLRRLNVLEAEGVTFVCNTEIGKDLPPETLLKDYDAVVLCTGATKPRDLAIAGRELEGIHFAMEFLTANTKAILDKTPGPNFISAKDKDVVIIGGGDTGTDCVGTSLRHGCRSLVQLEIMPKPPEERAANNPWPEWPKVYKMDYGQEEAAAVYGHDPRSYLTTATKIEGDDQGRVKAVHTVDVRWEKDGQGRFIPQQVAGTEQVRPAQLVLLAMGFVGPESQLLDAMKLDKDARGNIKAEYGQYETSIPGVFAAGDCRRGQSLVVWAFNEGRGAAKACDLYLMGETDLPLEHHHHHH”, for which the “soluble on expression in E. coli” value is recorded as “not soluble”.

On to “MGSSHHHHHHGKTIFVIVPTNEEQVAFLEALAKQDELNFDWQNPPTEPGQPVVILIPSDMVEWFLEMLKAKGIPFTVYVEEGGSENLYFQGGGGGGRSSRHLCGLPTVRTVAATGWRYHRHGAPEKVLQYERYRVPFDRTSGQVVVKMLAAPVHRHDKNLIEGHGGPIAVPKACLPHVAGVEGVGVVEEVGSNAKLALKEGDMVWINNPSVGSWATHIVTDAENLDVVPCRADVDIEYLASLSLFHTAYHLTHDFVNIQPNDVVLQTGASSSIAQICQGYLRAKGAKLFQTMQLGRTEHAHLLAFFKLRGAFAVVPYNYARTNYMRRLLSDVPPPKLLLNHTCGGYASNLVNLLGDNGVCVTYGNTSHQPMQISNMDAIARGVQFKGFFLPSWIRRHTREARMRVHQNVVESMTITQGHGIFRAQRFKMDGDSAFAFSNAWDAPLASRKAVLRIVGEYGEWRRPRSDQAGWNIGRAVWEDMLQQMWESAGTTENPQSMKYYTPFDDIHSSFYDAKQSKELGHRDVFFRRPNAPRHNAAEQQQ”, for which the “soluble on expression in E. coli” value was “not soluble”.
